Experimental data reported in publication PMC9715571 (Cell Research, 2022).

Legend:
[1] = molecular target: the molecule itself; experiment: crystal structure; WTAP 130-241 alone, 2.40 Å
[2] = molecular target: the molecule itself; experiment: cryo-EM structure; METTL3–METTL14–WTAP 1-273–VIRMA 381-1486 complex, gradient fixation, 3.1 Å; only WTAP 171-237 and VIRMA 381-1292 seen
VIRMA^381–1486 = molecular target: T1, VIRMA^381–1486 (human, UniProt Q69YN4 381-1486); experiment: as above; conditions: both partners purified
T1 construct: probably the baculovirus-insect cell system used for the other complexes
T1 sequence (looked up): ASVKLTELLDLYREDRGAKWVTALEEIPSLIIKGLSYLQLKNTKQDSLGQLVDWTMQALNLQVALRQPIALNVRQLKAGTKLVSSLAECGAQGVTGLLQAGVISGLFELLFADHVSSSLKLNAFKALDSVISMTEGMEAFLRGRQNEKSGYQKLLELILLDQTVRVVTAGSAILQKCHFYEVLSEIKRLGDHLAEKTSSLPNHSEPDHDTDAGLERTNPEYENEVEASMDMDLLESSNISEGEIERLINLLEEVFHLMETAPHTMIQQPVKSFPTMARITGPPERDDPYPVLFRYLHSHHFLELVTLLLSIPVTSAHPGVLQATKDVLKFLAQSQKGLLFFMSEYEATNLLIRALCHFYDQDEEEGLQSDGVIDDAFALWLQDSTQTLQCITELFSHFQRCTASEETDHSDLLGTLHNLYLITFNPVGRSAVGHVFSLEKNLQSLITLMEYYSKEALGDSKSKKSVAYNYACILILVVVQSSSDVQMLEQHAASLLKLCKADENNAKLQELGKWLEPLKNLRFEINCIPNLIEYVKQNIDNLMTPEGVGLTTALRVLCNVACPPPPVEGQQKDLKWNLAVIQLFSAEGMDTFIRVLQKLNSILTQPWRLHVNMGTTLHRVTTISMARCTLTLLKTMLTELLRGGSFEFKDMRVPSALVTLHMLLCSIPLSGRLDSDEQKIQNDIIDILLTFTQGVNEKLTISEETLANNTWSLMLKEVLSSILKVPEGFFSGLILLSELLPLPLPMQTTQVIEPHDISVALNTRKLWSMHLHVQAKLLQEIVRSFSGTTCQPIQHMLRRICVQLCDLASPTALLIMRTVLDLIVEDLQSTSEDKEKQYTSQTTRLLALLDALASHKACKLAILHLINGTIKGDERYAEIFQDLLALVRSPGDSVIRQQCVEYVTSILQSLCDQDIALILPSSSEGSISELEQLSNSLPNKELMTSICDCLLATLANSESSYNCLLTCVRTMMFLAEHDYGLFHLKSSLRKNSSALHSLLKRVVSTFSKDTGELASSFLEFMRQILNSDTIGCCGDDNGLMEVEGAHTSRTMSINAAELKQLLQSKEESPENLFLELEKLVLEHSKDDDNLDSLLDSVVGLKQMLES

METTL3 = molecular target: T2, METTL3 (human, UniProt Q86U44 1-580); experiment: cross-linking; in vitro CXMS of the quaternary M–M–W–V complex with BS3, FDR < 5%; conditions: both partners purified
T2 construct: METTL3, human; The same molecule is used for the co-purifications, the gel filtration and the cross-linking; also called MTC core subunit; source: baculovirus-insect cell expression system, co-expressed, purified
T2 sequence (Q86U44 whole entry): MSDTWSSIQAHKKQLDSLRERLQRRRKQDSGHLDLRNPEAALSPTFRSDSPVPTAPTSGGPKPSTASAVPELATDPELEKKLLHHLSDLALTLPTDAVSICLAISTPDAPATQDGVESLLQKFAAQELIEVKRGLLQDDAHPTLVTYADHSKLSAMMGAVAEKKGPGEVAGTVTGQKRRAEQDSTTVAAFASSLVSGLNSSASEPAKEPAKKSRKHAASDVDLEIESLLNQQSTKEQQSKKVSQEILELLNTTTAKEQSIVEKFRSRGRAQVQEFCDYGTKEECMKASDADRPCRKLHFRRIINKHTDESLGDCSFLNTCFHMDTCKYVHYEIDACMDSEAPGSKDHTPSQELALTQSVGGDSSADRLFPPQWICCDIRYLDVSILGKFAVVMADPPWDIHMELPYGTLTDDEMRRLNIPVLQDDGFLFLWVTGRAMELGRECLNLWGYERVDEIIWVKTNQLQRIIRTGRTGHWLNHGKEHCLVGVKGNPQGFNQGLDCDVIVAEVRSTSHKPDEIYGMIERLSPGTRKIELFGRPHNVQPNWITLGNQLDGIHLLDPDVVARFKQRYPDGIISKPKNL

METTL14 = molecular target: T3, METTL14 (human, UniProt Q9HCE5 1-456); experiment: SEC; gel filtration analysis of the purified, co-expressed METTL3–METTL14–WTAP 1-273–VIRMA 381-1486 complex; conditions: both partners purified
T3 construct: METTL14, human; also called MTC core subunit; source: baculovirus-insect cell expression system, co-expressed, purified
T3 sequence (looked up): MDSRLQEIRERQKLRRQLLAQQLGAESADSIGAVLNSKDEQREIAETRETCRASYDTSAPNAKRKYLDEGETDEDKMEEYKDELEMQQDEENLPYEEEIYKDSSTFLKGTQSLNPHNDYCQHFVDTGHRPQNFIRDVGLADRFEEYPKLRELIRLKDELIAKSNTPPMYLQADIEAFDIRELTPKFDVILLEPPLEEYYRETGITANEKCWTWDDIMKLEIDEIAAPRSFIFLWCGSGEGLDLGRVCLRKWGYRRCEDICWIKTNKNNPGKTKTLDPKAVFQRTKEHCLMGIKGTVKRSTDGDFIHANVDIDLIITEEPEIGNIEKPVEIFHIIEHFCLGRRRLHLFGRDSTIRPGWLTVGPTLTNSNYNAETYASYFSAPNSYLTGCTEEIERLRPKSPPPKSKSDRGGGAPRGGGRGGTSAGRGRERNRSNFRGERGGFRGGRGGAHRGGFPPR

| Binder | stoichiometry N [1] | stoichiometry N [2] | stoichiometry N (VIRMA^381–1486) | binding result (METTL3) | binding result (METTL14) |
| --- | --- | --- | --- | --- | --- |
| WTAP^130–241 (domain or fragment, human, UniProt Q15007 130-241, looked up, WTAP, human, residues 130-241; density assigned for residues 150-241; also called WTAP alone; WTAP^150–241 (assigned density); source: Escherichia coli expression system) QTKDKLEQAQNELSAWKFTPDSQTGKKLMAKCRMLIQENQELGRQLSQGRIAQLEAELALQKKYSEELKSSQDELNDFIIQLDEEVEGMQSTILVLQQQLKETRQQLAQYQQ | 2 | – | – | – | – |
| WTAP^1–273 (domain or fragment, human, UniProt Q15007 1-273, looked up, probably the baculovirus-insect cell system used for the other complexes; also called WTAPA; WTAPB) MTNEEPLPKKVRLSETDFKVMARDELILRWKQYEAYVQALEGKYTDLNSNDVTGLRESEEKLKQQQQESARRENILVMRLATKEQEMQECTTQIQYLKQVQQPSVAQLRSTMVDPAINLFFLKMKGELEQTKDKLEQAQNELSAWKFTPDSQTGKKLMAKCRMLIQENQELGRQLSQGRIAQLEAELALQKKYSEELKSSQDELNDFIIQLDEEVEGMQSTILVLQQQLKETRQQLAQYQQQQSQASAPSTSRTTASEPVEQSEATSKDCSRL | – | 2 | 2 WTAP:VIRMA | binds | binds |
